Molecular target: T1, MNV P domain (protruding domain of the capsid protein VP1 of murine norovirus) (murine norovirus (MNV), strain CW3, UniProt Q80J94 225-541)
T1 chain: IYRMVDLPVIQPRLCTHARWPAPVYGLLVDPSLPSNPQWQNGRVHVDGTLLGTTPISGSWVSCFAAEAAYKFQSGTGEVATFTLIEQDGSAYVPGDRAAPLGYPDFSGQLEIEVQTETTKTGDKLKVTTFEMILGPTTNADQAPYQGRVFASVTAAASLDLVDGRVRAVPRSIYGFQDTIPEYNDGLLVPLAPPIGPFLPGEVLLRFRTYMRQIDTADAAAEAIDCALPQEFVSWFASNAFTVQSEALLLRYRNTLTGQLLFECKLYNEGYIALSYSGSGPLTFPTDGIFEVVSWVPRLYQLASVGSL
Assay: ITC

B1: Nanobody NB-5829 (VHH)
VHH: QVQLQESGGGLVEAGGSLRLSCLGSGLTFSRYAMGWFRQAPGKEREFVASITRSGGSPNYADSVKGRFTISRDNAKNTVYLQMSSLKPEDTAVYYCAGRGSVYYDVWGQGTQVTVSS
Work on B1 yielded a Kd of 1.4 nM.

Source: paper doi:10.1101/2020.02.07.938506 (2020)
